The results in this text go back to the supplement of paper PMC5998384.

Data set [1] relates to HeLa Kyoto. Put plainly: solubility change mitosis vs G1/S (difference of NP-40 vs SDS log2 ratios) (log2 ratio difference); higher = more soluble in mitosis.
The test system of data set [2] is HeLa Kyoto. Description: melting temperature (median over replicates), in situ; higher = more thermally stable.
The test system of data set [3] is HeLa Kyoto. Put plainly: solubility in G1/S (NP-40 vs SDS abundance) (log2 ratio); higher = more soluble. To be noted: cell cycle stage: G1/S.
For data set [4], the system named is HeLa Kyoto. Put plainly: thermal stability score vs G1/S (z-score of summed log2 fold changes over temperatures); higher = more thermally stable than in G1/S.
[5] abbreviates: cell cycle stage: early G1 (4.5 h after nocodazole release).
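For melting temperature (median over replicates), in situ in this document: HeLa Kyoto cells synchronized by double thymidine or nocodazole block, proteins quantified by TMT10plex mass spectrometry, three independent biological replicates.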
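For solubility change mitosis vs G1/S (difference of NP-40 vs SDS log2 ratios) in this document: synchronized HeLa Kyoto cells (double thymidine block for G1/S, nocodazole release for mitosis), protein amounts in NP-40 versus SDS lysates quantified by mass spectrometry, three biological replicates.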
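For solubility in G1/S (NP-40 vs SDS abundance) in this document: HeLa Kyoto cells arrested at G1/S by double thymidine block, proteins quantified by TMT10plex mass spectrometry in mild NP-40 versus SDS extracts, three biological replicates.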
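For thermal stability score vs G1/S (z-score of summed log2 fold changes over temperatures) in this document: synchronized HeLa Kyoto cells, proteins quantified by TMT10plex mass spectrometry, three biological replicates, mitosis taken 0.5 h after nocodazole release, G1/S directly after double thymidine block.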

“MSKSLKKLVEESREKNQPEVDMSDRGISNMLDVNGLFTLSHITQLVLSHNKLTMVPPNIAELKNLEVLNFFNNQIEELPTQISSLQKLKHLNLGMNRLNTLPRGFGSLPALEVLDLTYNNLSENSLPGNFFYLTTLRALYLSDNDFEILPPDIGKLTKLQILSLRDNDLISLPKEIGELTQLKELHIQGNRLTVLPPELGNLDLTGQKQVFKAENNPWVTPIADQFQLGVSHVFEYIRSETYKYLYGRHMQANPEPPKKNNDKSKKISRKPLAAKNR [RSU1]”: the “solubility change mitosis (log2)” value in the data set with HeLa Kyoto [1] turned out to be 0.203. In addition, the figures for the melting temperature in the data set with HeLa Kyoto [2] (cell cycle stage: G1/S) and in the data set on HeLa Kyoto [2] (cell cycle stage: mitosis) were 50.3 °C and 52.9 °C, respectively. For the same sequence, the “solubility in G1/S (log2)” value in the data set with HeLa Kyoto [3] stood at 0.389. Further, the thermal stability score is -0.646 in the data set on HeLa Kyoto [4] (setting [5]) and -1.96 in the data set with HeLa Kyoto [4] (cell cycle stage: mitosis).

“MSKTNKSKSGSRSSRSRSASRSRSRSFSKSRSRSRSLSRSRKRRLSSRSRSRSYSPAHNRERNHPRVYQNRDFRGHNRGYRRPYYFRGRNRGFYPWGQYNRGGYGNYRSNWQNYRQAYSPRRGRSRSRSPKRRSPSPRSRSHSRNSDKSSSDRSRRSSSSRSSSNHSRVESSKRKSAKEKKSSSKDSRPSQAAGDNQGDEAKEQTFSGGTSQDTKASESSKPWPDATYGTGSASRASAVSELSPRERSPALKSPLQSVVVRRRSPRPSPVPKPSPPLSSTSQMGSTLPSGAGYQSGTHQGQFDHGSGSLSPSKKSPVGKSPPSTGSTYGSSQKEESAASGGAAYTKRYLEEQKTENGKDKEQKQTNTDKEKIKEKGSFSDTGLGDGKMKSDSFAPKTDSEKPFRGSQSPKRYKLRDDFEKKMADFHKEEMDDQDKDKAKGRKESEFDDEPKFMSKVIGANKNQEEEKSGKWEGLVYAPPGKEKQRKTEELEEESFPERSKKEDRGKRSEGGHRGFVPEKNFRVTAYKAVQEKSSSPPPRKTSESRDKLGAKGDFPTGKSSFSITREAQVNVRMDSFDEDLARPSGLLAQERKLCRDLVHSNKKEQEFRSIFQHIQSAQSQRSPSELFAQHIVTIVHHVKEHHFGSSGMTLHERFTKYLKRGTEQEAAKNKKSPEIHRRIDISPSTFRKHGLAHDEMKSPREPGYKAEGKYKDDPVDLRLDIERRKKHKERDLKRGKSRESVDSRDSSHSRERSAEKTEKTHKGSKKQKKHRRARDRSRSSSSSSQSSHSYKAEEYTEETEEREESTTGFDKSRLGTKDFVGPSERGGGRARGTFQFRARGRGWGRGNYSGNNNNNSNNDFQKRNREEEWDPEYTPKSKKYYLHDDREGEGSDKWVSRGRGRGAFPRGRGRFMFRKSSTSPKWAHDKFSGEEGEIEDDESGTENREEKDNIQPTTE [THRAP3]”: the “solubility change mitosis (log2)” value in the data set with HeLa Kyoto [1] was 0.46. Further, the melting temperature with HeLa Kyoto [2] (cell cycle stage: G1/S) worked out at 50.5 °C; with HeLa Kyoto [2] (cell cycle stage: mitosis), 51.2 °C. Also, the “solubility in G1/S (log2)” value with HeLa Kyoto [3] is -1.38. In addition, the thermal stability score was -5.24 with HeLa Kyoto [4] (setting [5]) and -3.44 with HeLa Kyoto [4] (cell cycle stage: mitosis).

Turning to “MSLDIQSLDIQCEELSDARWAELLPLLQQCQVVRLDDCGLTEARCKDISSALRVNPALAELNLRSNELGDVGVHCVLQGLQTPSCKIQKLSLQNCCLTGAGCGVLSSTLRTLPTLQELHLSDNLLGDAGLQLLCEGLLDPQCRLEKLQLEYCSLSAASCEPLASVLRAKPDFKELTVSNNDINEAGVRVLCQGLKDSPCQLEALKLESCGVTSDNCRDLCGIVASKASLRELALGSNKLGDVGMAELCPGLLHPSSRLRTLWIWECGITAKGCGDLCRVLRAKESLKELSLAGNELGDEGARLLCETLLEPGCQLESLWVKSCSFTAACCSHFSSVLAQNRFLLELQISNNRLEDAGVRELCQGLGQPGSVLRVLWLADCDVSDSSCSSLAATLLANHSLRELDLSNNCLGDAGILQLVESVRQPGCLLEQLVLYDIYWSEEMEDRLQALEKDKPSLRVIS [RNH1]”, the “solubility change mitosis (log2)” value in the data set with HeLa Kyoto [1] was -0.113. Besides, the melting temperature in the data set with HeLa Kyoto [2] (cell cycle stage: G1/S) and in the data set with HeLa Kyoto [2] (cell cycle stage: mitosis) was 52.8 °C each time. In the data set with HeLa Kyoto [3], the “solubility in G1/S (log2)” value amounted to 0.188. The thermal stability score stood at 1.78 in the data set on HeLa Kyoto [4] (setting [5]) and 1.35 with HeLa Kyoto [4] (cell cycle stage: mitosis).

Consider “MSLEQEEETQPGRLLGRRDAVPAFIEPNVRFWITERQSFIRRFLQWTELLDPTNVFISVESIENSRQLLCTNEDVSSPASADQRIQEAWKRSLATVHPDSSNLIPKLFRPAAFLPFMAPTVFLSMTPLKGIKSVILPQVFLCAYMAAFNSINGNRSYTCKPLERSLLMAGAVASSTFLGVIPQFVQMKYGLTGPWIKRLLPVIFLVQASGMNVYMSRSLESIKGIAVMDKEGNVLGHSRIAGTKAVRETLASRIVLFGTSALIPEVFTYFFKRTQYFRKNPGSLWILKLSCTVLAMGLMVPFSFSIFPQIGQIQYCSLEEKIQSPTEETEIFYHRGV [SFXN4]”, for which the “solubility change mitosis (log2)” value in the data set with HeLa Kyoto [1] is -0.195. Besides, the melting temperature in the data set on HeLa Kyoto [2] (cell cycle stage: G1/S) stood at 53.9 °C; with HeLa Kyoto [2] (cell cycle stage: mitosis) it was 54.8 °C. Besides, the “solubility in G1/S (log2)” value with HeLa Kyoto [3] is -0.194. For the same sequence, the thermal stability score in the data set on HeLa Kyoto [4] (setting [5]) was 0.0593; in the data set with HeLa Kyoto [4] (cell cycle stage: mitosis), -1.77.

“MSLEQRSLHCKPEEALEAQQEALGLVCVQAATSSSSPLVLGTLEEVPTAGSTDPPQSPQGASAFPTTINFTRQRQPSEGSSSREEEGPSTSCILESLFRAVITKKVADLVGFLLLKYRAREPVTKAEMLESVIKNYKHCFPEIFGKASESLQLVFGIDVKEADPTGHSYVLVTCLGLSYDGLLGDNQIMPKTGFLIIVLVMIAMEGGHAPEEEIWEELSVMEVYDGREHSAYGEPRKLLTQDLVQEKYLEYRQVPDSDPARYEFLWGPRALAETSYVKVLEYVIKVSARVRFFFPSLREAALREEEEGV [MAGEA1]”: in the data set on HeLa Kyoto [1], the “solubility change mitosis (log2)” value was -0.0297. Also, the melting temperature with HeLa Kyoto [2] (cell cycle stage: G1/S) is 48.4 °C; in the data set with HeLa Kyoto [2] (cell cycle stage: mitosis) it was 49.5 °C. For the same sequence, in the data set on HeLa Kyoto [3], the “solubility in G1/S (log2)” value was -0.178. In addition, the thermal stability score with HeLa Kyoto [4] (setting [5]) is 0.313; in the data set on HeLa Kyoto [4] (cell cycle stage: mitosis), 2.38.

In the case of “MSLKSERRGIHVDQSDLLCKKGCGYYGNPAWQGFCSKCWREEYHKARQKQIQEDWELAERLQREEEEAFASSQSSQGAQSLTFSKFEEKKTNEKTRKVTTVKKFFSASSRVGSKKEIQEAKAPSPSINRQTSIETDRVSKEFIEFLKTFHKTGQEIYKQTKLFLEGMHYKRDLSIEEQSECAQDFYHNVAERMQTRGKVPPERVEKIMDQIEKYIMTRLYKYVFCPETTDDEKKDLAIQKRIRALRWVTPQMLCVPVNEDIPEVSDMVVKAITDIIEMDSKRVPRDKLACITKCSKHIFNAIKITKNEPASADDFLPTLIYIVLKGNPPRLQSNIQYITRFCNPSRLMTGEDGYYFTNLCCAVAFIEKLDAQSLNLSQEDFDRYMSGQTSPRKQEAESWSPDACLGVKQMYKNLDLLSQLNERQERIMNEAKKLEKDLIDWTDGIAREVQDIVEKYPLEIKPPNQPLAAIDSENVENDKLPPPLQPQVYAG [RABGEF1]”, the “solubility change mitosis (log2)” value with HeLa Kyoto [1] was -0.0709. Moreover, the melting temperature in the data set on HeLa Kyoto [2] (cell cycle stage: G1/S) stood at 52.3 °C; in the data set on HeLa Kyoto [2] (cell cycle stage: mitosis), 50.3 °C. In the data set on HeLa Kyoto [3], the “solubility in G1/S (log2)” value amounted to 0.143. In addition, the thermal stability score in the data set with HeLa Kyoto [4] (setting [5]) was 0.899; in the data set on HeLa Kyoto [4] (cell cycle stage: mitosis), -2.37.

As to “MSLQWTAVATFLYAEVFVVLLLCIPFISPKRWQKIFKSRLVELLVSYGNTFFVVLIVILVLLVIDAVREIRKYDDVTEKVNLQNNPGAMEHFHMKLFRAQRNLYIAGFSLLLSFLLRRLVTLISQQATLLASNEAFKKQAESASEAAKKYMEENDQLKKGAAVDGGKLDVGNAEVKLEEENRSLKADLQKLKDELASTKQKLEKAENQVLAMRKQSEGLTKEYDRLLEEHAKLQAAVDGPMDKKEE [BCAP31]”, the “solubility change mitosis (log2)” value in the data set on HeLa Kyoto [1] was -0.101. Further, the melting temperature with HeLa Kyoto [2] (cell cycle stage: G1/S) and in the data set on HeLa Kyoto [2] (cell cycle stage: mitosis) was 55.5 °C each time. Further, the “solubility in G1/S (log2)” value in the data set with HeLa Kyoto [3] is 0.132. For the same sequence, the figures for the thermal stability score with HeLa Kyoto [4] (setting [5]) and with HeLa Kyoto [4] (cell cycle stage: mitosis) were -4.24 and -4.65, respectively.
